Data published in patent publication US10369195B2, “Methods and compositions for preventing and treating damage to the heart” (MandalMed, Inc., priority 2016, dated 2019).

Legend:
[1] = test system: xenograft model of human multiple myeloma; settings: mice; 30 μg/day by ALZET mini-osmotic pumps; cited from earlier work
[2] = test system: rat ischemia-reperfusion model of MI; test: Infarct size from Masson's trichrome-stained heart sections (volumetric, % area scarred); type: in vivo; settings: 600 μg/day
Description: (§1) After rats in the delayed treatment study were euthanized, hearts were harvested and sectioned for Masson's trichrome and Sirius red staining with quantitative image analysis to assess remodeling. Rather than using an optimized approach for infarct size measurement in permanent ligation rat models (64), it was confirmed that in the ischemia-reperfusion MI model, a volumetric infarct sizing approach (i.e., % area in the tissue sections that was scarred) would be more accurate. Using this approach for analysis of Masson's trichrome staining, it was shown that the infarct size was considerably (>2-fold) reduced in Gal-3C-treated (600 μg/day) rats, a difference that achieved significance with Gal-3C treatment in the delayed window (FIG. 8A).
As described in Example 3 above, rats were euthanized at 8 weeks post-MI, hearts were harvested and sectioned for Masson's trichrome and Sirius red staining with quantitative image analysis using a volumetric infarct sizing approach (i.e., % area in the tissue sections that was scarred) for analysis of Masson's trichrome staining to calculate the size of the primary infarct.

[3] = test system: rat ischemia-reperfusion model of MI; test: Intraventricular (LV) pressure / hemodynamic measurements after ischemia-reperfusion MI; type: in vivo
Protocol: Pre-filled and primed mini-osmotic pumps were implanted a few minutes before surgical induction of MI and Gal-3C treatment continued for 7 days (denoted as “early window”) as in the pilot study described above. The effect of treatment on cardiac function was evaluated by serial echocardiography on day 0 pre-MI, 2 and 28 days post-MI, and LV pressure measurement at 28 days. For the early window, groups consisted of sham surgery with PBS, sham with 600 μg/day Gal-3C, MI with PBS, MI with 200 μg/day Gal-3C, and MI with 600 μg/day Gal-3C.
Serial echocardiography was performed at 2, 28, and 56 days (8 weeks) post-MI and terminal intraventricular pressure catheter measurements were obtained. The effect on cardiac function from losartan was compared to the effect of Gal-3C that included data from the 12 animals in the Gal-3C and the 12 animals in the vehicle-only group that were presented in FIG. 9 and FIG. 10. […] The results described herein indicate that treatment with Gal-3C post-MI would be more beneficial on recovery and preservation of heart function compared to treatment with losartan or another ARB alone.

[4] = test system: Primary human cardiac fibroblasts; test: TGFβ1-induced differentiation of primary cardiac fibroblasts to myofibroblasts (immunoblots of SMA and tensin 1); type: cell-based
Protocol: Galectin-3 was purified on lactosyl-sepharose from recombinant E. coli pelleted from 40 L of culture, collagenase digested, and then Gal-3C was isolated on lactosyl sepharose as previously described (41). Primary human cardiac fibroblasts (Cell Applications, San Diego, Calif.) were purchased and cultured as per the vendor's recommendations. 200,000 cells at passage 2-3 were cultured in 6-well plates until confluent, starved for 48 h and then induced to differentiate to myofibroblasts by treatment with […] TGFβ1 for 48-72 h. Varying concentrations of Gal-3C were also incubated with the cells. The cells were harvested, lysates prepared, and total protein quantified with a BCA assay (Pierce/Thermo). A total of […] protein was analyzed per condition by immunoblots using primary Abs against smooth muscle actin (SMA) and tensin 1 (Sigma-Aldrich).

[5] = test system: rat ischemia-reperfusion model of MI; test: Interstitial (non-scar) border zone fibrosis from Sirius red-stained heart sections; type: in vivo; settings: delayed window, 600 μg/day
Description: as §1
Quantitative histology of Sirius red staining for interstitial fibrosis was performed on tissue sections with the most scar from each heart as described above in Example 3 using ImageJ.

[6] = 8 weeks post-MI, Gal-3C 600 μg/day days 4-10, losartan 8 mg/kg/day in drinking water 56 days, 15/group
[7] = Gal-3C 600 μg/day days 4-10 vs losartan 8 mg/kg/day 56 days, 15/group
[8] = delayed window, 600 μg/day, 8 weeks, vs controls, n=12/group
[9] = TGFβ1 5 or 15 mg/ml for 48-72 h, varying concentrations of Gal-3C

B1: Gal-3C: N-terminally truncated form of full length galectin-3, lacking the amino-terminal domain but retaining carbohydrate binding ability; 143 carboxy-terminal residues, SEQ ID NO: 3 (protein)
chain: GAPAGPLIVPYNLPLPGGVVPRMLITILGTVKPNANRIALDFQRGNDVAFHFNPRFNENNRRVIVCNTKLDNNWGREERQSVFPFESGKPFKIQVLVEPDHFKVAVNDAHLLQYNHRVKKLNEISKLGISGDIDITSASYTMI
- efficacy in xenograft model of human multiple myeloma [1]: good efficacy
- reduction of infarct size ([2]; 28 days post-MI, significant in the delayed window): > 2 fold
- infarct size vs PBS group ([2]; delayed window, 8 weeks post-MI): significantly smaller
- LVEDP, benefit relative to PBS [3, 6]: statistically significant benefit
- LVSP, benefit relative to PBS [3, 6]: statistically significant benefit
- mean ABP, benefit relative to PBS [3, 6]: statistically significant benefit
- LVEDP, benefit relative to losartan [3, 7]: statistically significant benefit
- LVSP, benefit relative to losartan [3, 7]: statistically significant benefit
- dP/dt max and dP/dt min ([3]; delayed window Gal-3C, 8 weeks, expanded groups 15/group (FIG. 13)): did not reach significance
- LVEDP [3, 8]: reached significance
- LVSP [3, 8]: reached significance
- dP/dt max [3, 8]: did not reach significance
- dP/dt min [3, 8]: did not reach significance
- mean ABP [3, 8]: reached significance
- all five hemodynamic parameters (mean ABP, LVSP, LVEDP, dP/dt max, dP/dt min) ([3]; delayed window, 600 μg/day, 28 days, vs vehicle): statistically significant improved
- intraventricular pressure measurement (mean ABP, LVSP, LVEDP, dP/dt max, dP/dt min) ([3]; early window, 200 and 600 μg/day, 28 days, vs PBS): did not reach statistical significance
- hemodynamic parameters (mean ABP, dp/dt max and min), 600 μg/day compared to 200 μg/day ([3]; early window, 28 days): Trends to greater improvement
- differentiation to myofibroblasts induced by TGF1β (decreased expression of tensin-1 and SMA) ([4]; Gal-3C 4-20 μg/ml, TGF1β 15 μg/ml): inhibited the differentiation to myofibroblasts
- expression of SMA (smooth muscle actin), immunoblot [4, 9]: inhibited expression
- expression of tensin 1, immunoblot [4, 9]: inhibited expression
- reduction of interstitial fibrosis relative to vehicle-only controls ([5]; 8 weeks post-MI, n=12/group): roughly 50%
- interstitial fibrosis (Sirius red), mean +/- SD ([5]; 8 weeks post-MI, n=12/group, P=0.0003 vs PBS-only): 2.4+/−1.3%
- reduction of interstitial fibrosis vs vehicle-only controls ([5]; 28 days post-MI): ~65%
